Measured values reported in patent publication US20240132578A1.

Legend:
Test in all cases: cell-based or functional assay
[1] = target: HIV-1 envelope glycoprotein (Env) of isolate MGRM-C-007 (HIV-1)
[2] = target: HIV-1 envelope glycoprotein (Env) of isolate MGRM-C-010 (HIV-1)
[3] = target: HIV-1 Env of isolate NL43, clade B (HIV-1)
[4] = target: HIV-1 92RW021 envelope glycoprotein (Env) on pseudovirus (HIV-1 (clade A))
[5] = target: HIV-1 Env of pseudovirus MGRM-F1-018 (clade F) (HIV-1)
[6] = target: HIV-1 93UG077 envelope (Env) on pseudovirus (HIV-1)
[7] = target: HIV-1 Env of isolate 92UG037 (clade A pseudovirus) (HIV-1)
[8] = target: HIV-1 Env of isolate MGRM-A-001 (clade A pseudovirus) (HIV-1)
[9] = target: HIV-1 92UG005 envelope (Env) on pseudovirus (HIV-1)
[10] = target: HIV-1 Env of isolate MGRM-D-004 (clade D pseudovirus) (HIV-1)
[11] = target: HIV-1 Env of isolate MGRM-D-021 (clade D pseudovirus) (HIV-1)
[12] = target: HIV-1 Env of isolate 6535.3 (Acute), clade B (HIV-1)
[13] = target: HIV-1 Env of pseudovirus MGRM-G-011 (HIV-1)
[14] = target: HIV-1 MGRM-AE-008 Env (pseudovirus) (HIV-1)
[15] = target: HIV-1 Env of isolate 92TH021 (pseudovirus) (HIV-1)
[16] = target: HIV-1 MGRM-C-028 Env (HIV-1)
[17] = target: HIV-1 Env of isolate MGRM-AG-012 (pseudovirus) (HIV-1)
[18] = target: HIV-1 Env of isolate MGRM-F1-015 (pseudovirus) (HIV-1)
[19] = target: HIV-1 envelope glycoprotein (Env) of isolate MGRM-Chronic-B-012, on pseudovirus (HIV-1)
[20] = target: HIV-1 envelope glycoprotein (Env) of isolate 93UG077, subtype A (HIV-1)
[21] = target: HIV-1 envelope glycoprotein (Env) of isolate NL43, on pseudovirus (HIV-1)
[22] = target: HIV-1 envelope glycoprotein (Env) of isolate MGRM-Chronic-B-003, on pseudovirus (HIV-1)
[23] = target: HIV-1 envelope glycoprotein (Env) of isolate 6535.3, on pseudovirus (HIV-1)
[24] = target: HIV-1 envelope glycoprotein (Env) of isolate 92WR021, subtype A (HIV-1)
[25] = target: HIV-1 92UG005 Env (HIV-1)
[26] = target: HIV-1 JR-CSF Env I424A (HIV-1 (isolate JR-CSF)) (UniProt P20871)
[27] = target: HIV-1 Env of isolate MGRM-AG-003 (pseudovirus) (HIV-1)
[28] = target: HIV-1 Env of isolate MGRM-A-014 (subtype A) (HIV-1)
[29] = target: HIV-1 Env of pseudovirus isolate MGRM-C-019 (clade C) (HIV-1)
[30] = target: HIV-1 Env of isolate MGRM-C-005 (HIV-1)
[31] = target: HIV-1 Env of isolate VLGCA1 (subtype A) (HIV-1)
[32] = target: HIV-1 Env of isolate MGRM-D-028 (HIV-1)
[33] = target: HIV-1 Env of isolate MGRM-D-024 (HIV-1)
[34] = target: HIV-1 Env of isolate 98CN006 (pseudovirus) (HIV-1)
[35] = target: HIV-1 Env of isolate MGRM-G-025 (subtype G) (HIV-1)
[36] = target: aMLV envelope (negative control pseudovirus) (aMLV)

Sequence of 1443_C16 (PG16) (TCN-116) (antibody) (VH): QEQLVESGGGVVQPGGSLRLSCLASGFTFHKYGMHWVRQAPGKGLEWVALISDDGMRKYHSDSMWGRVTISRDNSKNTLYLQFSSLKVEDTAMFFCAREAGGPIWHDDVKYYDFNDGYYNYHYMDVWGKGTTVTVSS
Sequence of 1443_C16 (PG16) (TCN-116) (antibody) (VL): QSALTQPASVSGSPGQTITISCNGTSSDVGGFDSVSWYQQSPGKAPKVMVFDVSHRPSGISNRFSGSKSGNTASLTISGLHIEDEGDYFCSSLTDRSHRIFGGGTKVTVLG
Sequence of 5345_I01 (PGT-137) (antibody) (VH): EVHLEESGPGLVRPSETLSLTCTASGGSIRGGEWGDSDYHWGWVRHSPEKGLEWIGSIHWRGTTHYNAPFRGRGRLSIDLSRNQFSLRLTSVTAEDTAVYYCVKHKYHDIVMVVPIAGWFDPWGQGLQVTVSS
Sequence of 5345_I01 (PGT-137) (antibody) (VL): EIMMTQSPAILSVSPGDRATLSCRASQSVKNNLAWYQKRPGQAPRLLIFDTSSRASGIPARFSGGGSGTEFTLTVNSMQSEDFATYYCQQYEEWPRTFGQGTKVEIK
Sequence of 5329_C19 (PGT-136) (antibody) (VH): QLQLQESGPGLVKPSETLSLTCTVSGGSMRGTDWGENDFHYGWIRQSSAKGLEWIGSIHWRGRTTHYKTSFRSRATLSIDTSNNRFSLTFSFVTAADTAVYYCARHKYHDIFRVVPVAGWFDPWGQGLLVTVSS
Sequence of 5329_C19 (PGT-136) (antibody) (VL): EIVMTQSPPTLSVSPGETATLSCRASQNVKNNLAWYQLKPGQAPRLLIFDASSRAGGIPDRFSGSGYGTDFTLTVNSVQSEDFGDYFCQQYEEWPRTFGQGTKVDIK

Substance | IC50 (µg/ml), pseudovirus neutralization [1] [µg/mL] | IC50 (µg/ml), pseudovirus neutralization [2] [µg/mL] | IC50 (µg/ml), pseudovirus neutralization [3] [µg/mL] | IC50 (µg/ml), pseudovirus neutralization [4] [µg/mL] | IC50 [5] [µg/mL] | neutralization IC50 [6] [µg/mL] | IC50 (µg/ml), pseudovirus neutralization [7] [µg/mL] | IC50 (µg/ml), pseudovirus neutralization [8] [µg/mL] | neutralization IC50 [9] [µg/mL] | IC50, pseudovirus neutralization [10] [µg/mL] | IC50, pseudovirus neutralization [11] [µg/mL] | IC50 (µg/ml), pseudovirus neutralization [12] [µg/mL] | IC50 (µg/ml), pseudovirus neutralization [13] [µg/mL] | IC50 (µg/ml), pseudovirus neutralization [14] [µg/mL] | IC50 (µg/mL), pseudovirus neutralization [17] [µg/mL] | IC50 (µg/mL), pseudovirus neutralization [18] [µg/mL] | IC50, pseudovirus neutralization [19] [µg/mL] | IC50, pseudovirus neutralization [20] [µg/mL] | IC50, pseudovirus neutralization [21] [µg/mL] | IC50, pseudovirus neutralization [22] [µg/mL] | other results
2F5 (antibody) | > 50 | > 50 | 2.02 | 4.16 | 3.91 | 4.45 | 3.24 | > 50 | 11.8 | 2.3 | > 50 | 2.76 | 1.16 | > 50 |  |  |  |  |  |  | 
2G12 (antibody) | > 50 | > 50 | 0.49 | > 50 | > 50 | > 50 | 45.2 | > 50 | > 50 | > 50 | 23 | 3.85 | > 50 | > 50 |  |  |  |  |  |  | 
4E10 (antibody) | 5.84 | 11 | 4.67 | 4.87 | 3.6 | 11.2 | 8.84 | 15.1 | 8.86 | 1.58 | 13.3 | 1.23 | 1.44 | 0.94 |  |  |  |  |  |  | 
1443_C16 (PG16) (TCN-116) (antibody) | 0.05 | > 50 | 0.02 | 0.11 | 0.01 | > 50 | 0.01 | > 50 | > 50 | 0.01 | > 50 | 36.9 | 0.04 | 3.25 |  |  |  |  |  |  | 
1495_C14 (PGC14) (antibody) | > 50 | > 50 | 40 | > 50 | > 50 | > 50 | > 50 | > 50 | > 50 | > 50 | > 50 | 35 | > 50 | > 50 |  |  |  |  |  |  | 
1496_C09 (PG9) (TCN-109) (antibody) | 0.09 | 12.4 | 0.32 | 0.05 | 0.03 |  |  |  |  | 0.03 |  | 0.22 | 0.19 | 10.6 | 22.8 |  |  |  |  |  | IC50 (µg/mL), pseudovirus neutralization [15]: 0.059 µg/mL; IC50, pseudovirus neutralization [16]: 0.121 µg/mL
4838_L06 (PGT-121) (antibody) |  |  |  |  |  |  |  |  |  |  |  |  |  |  |  | 28.4 | 0.036 | 0.019 | > 50 | 0.011 | IC50, pseudovirus neutralization [23]: 0.005 µg/mL; IC50, pseudovirus neutralization [24]: 0.009 µg/mL; IC50, pseudovirus neutralization [25]: > 10 µg/mL
4858_P08 (PGT-123) (antibody) |  |  |  |  |  |  |  |  |  |  |  |  |  |  | > 50 | > 50 | 0.227 | 0.028 | > 50 | 0.008 | IC50, pseudovirus neutralization [16]: 0.443 µg/mL; Fold IC50 increase relative to wild-type (pseudovirus neutralization) [26]: 0.5 fold; IC50, pseudovirus neutralization [23]: 0.004 µg/mL; IC50 (µg/mL), pseudovirus neutralization [27]: > 50 µg/mL; IC50, pseudovirus neutralization [24]: 0.005 µg/mL; IC50, pseudovirus neutralization [25]: 2.49 µg/mL
4877_D15 (PGT-122) (antibody) |  |  |  |  |  |  |  |  |  |  |  |  |  |  | > 50 | 31.4 | 0.066 | 0.084 | > 50 | 0.008 | IC50, pseudovirus neutralization [16]: 2.06 µg/mL; IC50, pseudovirus neutralization [23]: 0.006 µg/mL; IC50 (µg/mL), pseudovirus neutralization [27]: 43.7 µg/mL; IC50, pseudovirus neutralization [24]: 0.021 µg/mL; IC50, pseudovirus neutralization [25]: > 10 µg/mL
5123_A06 (PGT-125) (antibody) |  |  |  |  |  |  |  |  |  |  |  |  |  |  | > 50 | > 50 | 0.036 | 0.012 | > 50 | 0.157 | IC50, pseudovirus neutralization [16]: 5.78 µg/mL; Fold IC50 increase relative to wild-type (pseudovirus neutralization) [26]: 0.7 fold; IC50, pseudovirus neutralization [23]: 0.01 µg/mL; IC50 (µg/mL), pseudovirus neutralization [27]: > 50 µg/mL; IC50, pseudovirus neutralization [24]: 0.005 µg/mL; IC50, pseudovirus neutralization [25]: > 10 µg/mL
5141_B17 (PGT-126) (antibody) |  |  |  |  |  |  |  |  |  |  |  |  |  |  | > 50 | > 50 | 0.027 | 0.02 | > 50 | 0.041 | IC50, pseudovirus neutralization [16]: 0.283 µg/mL; Fold IC50 increase relative to wild-type (pseudovirus neutralization) [26]: 0.4 fold; IC50, pseudovirus neutralization [23]: 0.022 µg/mL; IC50 (µg/mL), pseudovirus neutralization [27]: > 50 µg/mL; IC50, pseudovirus neutralization [24]: 0.006 µg/mL; IC50, pseudovirus neutralization [25]: 0.0181 µg/mL
5145_B14 (PGT-127) (antibody) |  |  |  |  |  |  |  |  |  |  |  |  |  |  | > 50 | > 50 | 0.075 | 0.055 | > 50 | 0.12 | Fold IC50 increase relative to wild-type (pseudovirus neutralization) [26]: 2 fold; IC50, pseudovirus neutralization [23]: 0.02 µg/mL; IC50 (µg/mL), pseudovirus neutralization [27]: > 50 µg/mL; IC50, pseudovirus neutralization [24]: 0.011 µg/mL
5329_C19 (PGT-136) (antibody) |  |  |  |  |  |  |  |  |  |  |  |  |  |  |  |  |  |  |  |  | IC50, pseudovirus neutralization [28]: > 50 µg/mL; IC50, pseudovirus neutralization [29]: 20.1 µg/mL; IC50 (µg/mL), pseudovirus neutralization [30]: > 50 µg/mL; IC50, pseudovirus neutralization [31]: > 50 µg/mL; IC50 (µg/mL), pseudovirus neutralization [32]: > 50 µg/mL; IC50 (µg/mL), pseudovirus neutralization [33]: > 50 µg/mL; IC50 (µg/mL), pseudovirus neutralization [34]: 0.406 µg/mL
5345_I01 (PGT-137) (antibody) |  |  |  |  |  |  |  |  |  |  |  |  |  |  |  |  |  |  |  |  | IC50, pseudovirus neutralization [28]: 18.6 µg/mL; IC50, pseudovirus neutralization [29]: > 50 µg/mL; IC50 (µg/mL), pseudovirus neutralization [30]: > 50 µg/mL; IC50, pseudovirus neutralization [31]: > 50 µg/mL; IC50 (µg/mL), pseudovirus neutralization [32]: > 50 µg/mL; IC50 (µg/mL), pseudovirus neutralization [33]: > 50 µg/mL; IC50 (µg/mL), pseudovirus neutralization [34]: 1.22 µg/mL
PGV04 (antibody) |  |  |  |  |  |  |  |  |  |  |  |  |  |  | 0.04 |  |  |  |  |  | IC50 (µg/mL), pseudovirus neutralization [15]: 1.29 µg/mL; IC50 (µg/mL), pseudovirus neutralization [27]: 0.058 µg/mL; IC50 (µg/mL), pseudovirus neutralization [35]: 1.61 µg/mL; IC50 (µg/mL), pseudovirus neutralization [36]: > 50 µg/mL
b12 (antibody) | > 50 | > 50 | 0.17 | > 50 | > 50 | 41.1 | > 50 | > 50 | > 50 | > 50 | 5.23 | 1.93 | > 50 | > 50 |  |  |  |  |  |  | 
